# Measured values as given in publication PMC9352680, “A comprehensive thermodynamic model for RNA binding by the Saccharomyces cerevisiae Pumilio protein PUF4”.
# T1: PUF4 RNA-binding domain (Saccharomyces cerevisiae, UniProt P25339 537-888)
# T1 sequence: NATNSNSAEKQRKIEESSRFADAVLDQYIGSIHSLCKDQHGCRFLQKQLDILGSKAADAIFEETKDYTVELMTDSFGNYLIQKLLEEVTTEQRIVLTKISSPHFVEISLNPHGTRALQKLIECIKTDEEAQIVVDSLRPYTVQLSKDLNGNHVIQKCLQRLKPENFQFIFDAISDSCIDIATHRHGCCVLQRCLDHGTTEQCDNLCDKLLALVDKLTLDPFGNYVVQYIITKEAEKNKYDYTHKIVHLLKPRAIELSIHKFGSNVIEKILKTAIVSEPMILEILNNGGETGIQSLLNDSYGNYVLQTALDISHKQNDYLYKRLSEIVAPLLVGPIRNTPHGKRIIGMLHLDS
# Biological target: T1, PUF4 RNA-binding domain
# Assay: Mg; RNA-MaP; 20 mM Na-HEPES pH 7.4, 30 mM KOAc, 0.75 mM MgCl2, 0.1% Tween-20, 5% glycerol, 0.1 mg/mL BSA, 2 mM DTT; 25 C; 0.0125-409.6 nM protein
# Conditions: tags: N-His6-TEV cleaved; C-SNAP kept, Cy3B-labelled; label: tethered on chip by stalled RNA polymerase
row,Binder,Kd [nM]
1,UCUCUUUGUAUUUCUAUCUCUU (ssRNA) [Ib_S1_P5E.1_K5.1_C5.1_H5.1_A5.1_[A7T]_F5.1_[T8C]_T5.1],6.46
2,UCUCUUUGUAUUUAUAUCUCUU (ssRNA) [Ib_S1_P5E.1_K5.1_C5.1_H5.1_A5.1_[A7T]_F5.1_[T8A]_T5.1],5.27
3,Id_ii_S2_P5E.3_K5.2_C5.2_[C-2A]_[T-1A]_H5.2_A5.1_F5.1_T5.2_[T11C]_[A12G] (ssRNA) RNA: UUUGAUUAAUAUGAUAUCGUUCUUUCUAAUAUAUUAUUACGUUCUUUCUCGAUAUCAUAUUAAUCUUU,> 2300
4,Id_ii_S2_P5E.3_K5.2_C5.2_[T-1A]_H5.2_A5.1_F5.1_T5.2_[T11C] (ssRNA) RNA: UUUGAUUAAUAUGAUAUCGUUCUUUCUCAUAUAUUAUUACAUUCUUUCUCGAUAUCAUAUUAAUCUUU,166
5,Id_ii_S2_P5E.3_K5.2_C5.2_[T-1A]_H5.2_A5.1_F5.1_T5.2_[A12T] (ssRNA) RNA: UUUGAUUAAUAUGAUAUCGUUCUUUCUCAUAUAUUAUUAUUUUCUUUCUCGAUAUCAUAUUAAUCUUU,223
6,Id_ii_S2_P5E.3_K5.2_C5.2_[T-1C]_H5.2_A5.1_F5.1_T5.2_[A12T] (ssRNA) RNA: UUUGAUUAAUAUGAUAUCGUUCUUUCUCCUAUAUUAUUAUUUUCUUUCUCGAUAUCAUAUUAAUCUUU,79.4
7,Id_ii_S2_P5E.3_K5.2_C5.2_[T-1A]_H5.2_A5.1_F5.1_T5.2_[T11C]_[A12G] (ssRNA) RNA: UUUGAUUAAUAUGAUAUCGUUCUUUCUCAUAUAUUAUUACGUUCUUUCUCGAUAUCAUAUUAAUCUUU,372
8,Id_ii_S2_P5E.3_K5.2_C5.2_[T-1C]_H5.2_A5.1_F5.1_T5.2_[T11A]_[A12T] (ssRNA) RNA: UUUGAUUAAUAUGAUAUCGUUCUUUCUCCUAUAUUAUUAAUUUCUUUCUCGAUAUCAUAUUAAUCUUU,138
9,Id_ii_S2_P5E.3_K5.2_C5.2_[T-1A]_H5.2_A5.1_F5.1_T5.2_[T11A]_[A12T] (ssRNA) RNA: UUUGAUUAAUAUGAUAUCGUUCUUUCUCAUAUAUUAUUAAUUUCUUUCUCGAUAUCAUAUUAAUCUUU,131
10,Id_ii_S2_P5E.3_K5.2_C5.2_[T-1A]_H5.2_A5.1_F5.1_T5.2_[T11A] (ssRNA) RNA: UUUGAUUAAUAUGAUAUCGUUCUUUCUCAUAUAUUAUUAAAUUCUUUCUCGAUAUCAUAUUAAUCUUU,246
11,Id_ii_S2_P5E.3_K5.2_C5.2_[C-2A]_H5.2_A5.1_F5.1_T5.2_[T11C]_[A12G] (ssRNA) RNA: UUUGAUUAAUAUGAUAUCGUUCUUUCUAUUAUAUUAUUACGUUCUUUCUCGAUAUCAUAUUAAUCUUU,229
12,Id_ii_S2_P5E.3_K5.2_C5.2_[T-1C]_H5.2_A5.1_F5.1_T5.2_[T11C]_[A12G] (ssRNA) RNA: UUUGAUUAAUAUGAUAUCGUUCUUUCUCCUAUAUUAUUACGUUCUUUCUCGAUAUCAUAUUAAUCUUU,392
13,Id_ii_S2_P5E.3_K5.2_C5.2_[T-1C]_H5.2_A5.1_F5.1_T5.2_[T11C]_[A12T] (ssRNA) RNA: UUUGAUUAAUAUGAUAUCGUUCUUUCUCCUAUAUUAUUACUUUCUUUCUCGAUAUCAUAUUAAUCUUU,57.9
14,Id_ii_S2_P5E.3_K5.2_C5.2_[C-2A]_[T-1A]_H5.2_A5.1_F5.1_T5.2_[T11C]_[A12C] (ssRNA) RNA: UUUGAUUAAUAUGAUAUCGUUCUUUCUAAUAUAUUAUUACCUUCUUUCUCGAUAUCAUAUUAAUCUUU,504
15,Id_ii_S2_P5E.3_K5.2_C5.2_[T-1A]_H5.2_A5.1_F5.1_T5.2_[T11G]_[A12C] (ssRNA) RNA: UUUGAUUAAUAUGAUAUCGUUCUUUCUCAUAUAUUAUUAGCUUCUUUCUCGAUAUCAUAUUAAUCUUU,112
16,Id_ii_S2_P5E.3_K5.2_C5.2_[T-1A]_H5.2_A5.1_F5.1_T5.2_[T11C]_[A12C] (ssRNA) RNA: UUUGAUUAAUAUGAUAUCGUUCUUUCUCAUAUAUUAUUACCUUCUUUCUCGAUAUCAUAUUAAUCUUU,69.4
17,Id_ii_S2_P5E.3_K5.2_C5.2_[T-1C]_H5.2_A5.1_F5.1_T5.2_[T11A] (ssRNA) RNA: UUUGAUUAAUAUGAUAUCGUUCUUUCUCCUAUAUUAUUAAAUUCUUUCUCGAUAUCAUAUUAAUCUUU,151
18,Id_ii_S2_P5E.3_K5.2_C5.2_H5.2_A5.1_F5.1_T5.2_[T11G]_[A12C] (ssRNA) RNA: UUUGAUUAAUAUGAUAUCGUUCUUUCUCUUAUAUUAUUAGCUUCUUUCUCGAUAUCAUAUUAAUCUUU,127
19,Id_ii_S2_P5E.3_K5.2_C5.2_H5.2_A5.1_F5.1_T5.2_[T11G]_[A12T] (ssRNA) RNA: UUUGAUUAAUAUGAUAUCGUUCUUUCUCUUAUAUUAUUAGUUUCUUUCUCGAUAUCAUAUUAAUCUUU,462
20,Id_ii_S2_P5E.3_K5.2_C5.2_[T-1G]_H5.2_A5.1_F5.1_T5.2_[T11A]_[A12T] (ssRNA) RNA: UUUGAUUAAUAUGAUAUCGUUCUUUCUCGUAUAUUAUUAAUUUCUUUCUCGAUAUCAUAUUAAUCUUU,12.1
21,Id_ii_S2_P5E.3_K5.2_C5.2_[T-1A]_H5.2_A5.1_F5.1_T5.2_[A12C] (ssRNA) RNA: UUUGAUUAAUAUGAUAUCGUUCUUUCUCAUAUAUUAUUAUCUUCUUUCUCGAUAUCAUAUUAAUCUUU,151
22,Id_ii_S2_P5E.3_K5.2_C5.2_[T-1G]_H5.2_A5.1_F5.1_T5.2_[A12C] (ssRNA) RNA: UUUGAUUAAUAUGAUAUCGUUCUUUCUCGUAUAUUAUUAUCUUCUUUCUCGAUAUCAUAUUAAUCUUU,28.4
23,Id_ii_S2_P5E.3_K5.2_C5.2_[T-1C]_H5.2_A5.1_F5.1_T5.2_[T11A]_[A12G] (ssRNA) RNA: UUUGAUUAAUAUGAUAUCGUUCUUUCUCCUAUAUUAUUAAGUUCUUUCUCGAUAUCAUAUUAAUCUUU,887

row,Binder,Kd [nM]
1,Id_ii_S2_P5E.3_K5.2_C5.2_[T-1G]_H5.2_A5.1_F5.1_T5.2_[T11G]_[A12T] (ssRNA) RNA: UUUGAUUAAUAUGAUAUCGUUCUUUCUCGUAUAUUAUUAGUUUCUUUCUCGAUAUCAUAUUAAUCUUU,38.1
2,Id_ii_S2_P5E.3_K5.2_C5.2_[C-2A]_H5.2_A5.1_F5.1_T5.2_[T11G]_[A12C] (ssRNA) RNA: UUUGAUUAAUAUGAUAUCGUUCUUUCUAUUAUAUUAUUAGCUUCUUUCUCGAUAUCAUAUUAAUCUUU,762
3,Id_ii_S2_P5E.3_K5.2_C5.2_H5.2_A5.1_F5.1_T5.2_[T11C]_[A12C] (ssRNA) RNA: UUUGAUUAAUAUGAUAUCGUUCUUUCUCUUAUAUUAUUACCUUCUUUCUCGAUAUCAUAUUAAUCUUU,92.1
4,Id_ii_S2_P5E.3_K5.2_C5.2_[T-1A]_H5.2_A5.1_F5.1_T5.2_[T11A]_[A12C] (ssRNA) RNA: UUUGAUUAAUAUGAUAUCGUUCUUUCUCAUAUAUUAUUAACUUCUUUCUCGAUAUCAUAUUAAUCUUU,96.4
5,Id_ii_S2_P5E.3_K5.2_C5.2_[C-2A]_H5.2_A5.1_F5.1_T5.2_[T11C]_[A12C] (ssRNA) RNA: UUUGAUUAAUAUGAUAUCGUUCUUUCUAUUAUAUUAUUACCUUCUUUCUCGAUAUCAUAUUAAUCUUU,142
6,Id_ii_S2_P5E.3_K5.2_C5.2_[C-2A]_[T-1A]_H5.2_A5.1_F5.1_T5.2_[T11C] (ssRNA) RNA: UUUGAUUAAUAUGAUAUCGUUCUUUCUAAUAUAUUAUUACAUUCUUUCUCGAUAUCAUAUUAAUCUUU,672
7,Id_ii_S2_P5E.3_K5.2_C5.2_[C-2A]_H5.2_A5.1_F5.1_T5.2_[T11C]_[A12T] (ssRNA) RNA: UUUGAUUAAUAUGAUAUCGUUCUUUCUAUUAUAUUAUUACUUUCUUUCUCGAUAUCAUAUUAAUCUUU,97.6
8,Id_ii_S2_P5E.3_K5.2_C5.2_[T-1C]_H5.2_A5.1_F5.1_T5.2_[T11A]_[A12C] (ssRNA) RNA: UUUGAUUAAUAUGAUAUCGUUCUUUCUCCUAUAUUAUUAACUUCUUUCUCGAUAUCAUAUUAAUCUUU,108
9,Id_ii_S2_P5E.3_K5.2_C5.2_[C-2A]_H5.2_A5.1_F5.1_T5.2_[A12T] (ssRNA) RNA: UUUGAUUAAUAUGAUAUCGUUCUUUCUAUUAUAUUAUUAUUUUCUUUCUCGAUAUCAUAUUAAUCUUU,269
10,Id_ii_S2_P5E.3_K5.2_C5.2_[T-1C]_H5.2_A5.1_F5.1_T5.2_[T11C]_[A12C] (ssRNA) RNA: UUUGAUUAAUAUGAUAUCGUUCUUUCUCCUAUAUUAUUACCUUCUUUCUCGAUAUCAUAUUAAUCUUU,87.3
11,Id_ii_S2_P5E.3_K5.2_C5.2_[C-2A]_H5.2_A5.1_F5.1_T5.2_[T11C] (ssRNA) RNA: UUUGAUUAAUAUGAUAUCGUUCUUUCUAUUAUAUUAUUACAUUCUUUCUCGAUAUCAUAUUAAUCUUU,207
12,Id_ii_S2_P5E.3_K5.2_C5.2_[T-1G]_H5.2_A5.1_F5.1_T5.2_[T11G]_[A12C] (ssRNA) RNA: UUUGAUUAAUAUGAUAUCGUUCUUUCUCGUAUAUUAUUAGCUUCUUUCUCGAUAUCAUAUUAAUCUUU,28.1
13,Id_ii_S2_P5E.3_K5.2_C5.2_[T-1A]_H5.2_A5.1_F5.1_T5.2_[T11A]_[A12G] (ssRNA) RNA: UUUGAUUAAUAUGAUAUCGUUCUUUCUCAUAUAUUAUUAAGUUCUUUCUCGAUAUCAUAUUAAUCUUU,1200
14,Id_ii_S2_P5E.3_K5.2_C5.2_[C-2A]_H5.2_A5.1_F5.1_T5.2_[A12C] (ssRNA) RNA: UUUGAUUAAUAUGAUAUCGUUCUUUCUAUUAUAUUAUUAUCUUCUUUCUCGAUAUCAUAUUAAUCUUU,122
15,Id_ii_S2_P5E.3_K5.2_C5.2_[T-1A]_H5.2_A5.1_F5.1_T5.2_[T11C]_[A12T] (ssRNA) RNA: UUUGAUUAAUAUGAUAUCGUUCUUUCUCAUAUAUUAUUACUUUCUUUCUCGAUAUCAUAUUAAUCUUU,90.7
16,Id_ii_S2_P5E.3_K5.2_C5.2_[T-1G]_H5.2_A5.1_F5.1_T5.2_[T11A]_[A12C] (ssRNA) RNA: UUUGAUUAAUAUGAUAUCGUUCUUUCUCGUAUAUUAUUAACUUCUUUCUCGAUAUCAUAUUAAUCUUU,15.5
17,Id_ii_S2_P5E.3_K5.2_C5.2_H5.2_A5.1_F5.1_T5.2_[T11C]_[A12G] (ssRNA) RNA: UUUGAUUAAUAUGAUAUCGUUCUUUCUCUUAUAUUAUUACGUUCUUUCUCGAUAUCAUAUUAAUCUUU,426
18,Id_ii_S2_P5E.3_K5.2_C5.2_[T-1G]_H5.2_A5.1_F5.1_T5.2_[A12T] (ssRNA) RNA: UUUGAUUAAUAUGAUAUCGUUCUUUCUCGUAUAUUAUUAUUUUCUUUCUCGAUAUCAUAUUAAUCUUU,11.9
19,UCUCUUUGUAUUCAUAUCUCUU (ssRNA) [Ib_S1_P5E.1_K5.1_C5.1_H5.1_A5.1_[A7C]_F5.1_[T8A]_T5.1],14
20,UCUCUUUGUCUUAUUAUCUCUU (ssRNA) [Ia_S1_P5E.1_K5.1_C5.1_H5.1_[A4C]_A5.1_F5.1_T5.1],38.3
21,UCUCUUUGUACUAUGAUCUCUU (ssRNA) [Ib_S1_P5E.1_K5.1_C5.1_H5.1_A5.1_[T5C]_F5.1_[T9G]_T5.1],13.2
22,UCUCUUUGUAUAUUUCUCUU (ssRNA) [Ic_S1_P3E.1_K3.1_C3.1_H3.1_A3.1_F3.1_[A8T]_T3.1],4.59
